Measurements published in US20160228506A1, “Compositions and Formulations for Prevention and Reduction of Tumorigenesis, Cancer Cell Proliferation and Invasion, and Methods of Production and Use Thereof in Cancer Treatment” (PRONUTRIA, INC., priority 2013, published 2016).

B1: SEQID-00305: nutritive polypeptide (protein, listed as Bos taurus)
chain: MPHQYPALTPEQKKELCDIAHRIVAPGKGILAADESTGSIAKRLQSIGTENTEENRRFYRQLLLTADDRVNPCIGGVILFHETLYQKADDGRPFPQVIKAKGGVVGIKVDKGVVPLAGTNGETTTQGLDGLSERCAQYKKDGADFAKWRCVLKIGEHTPSSLAIMENANVLARYASICQQNGIVPIVEPEILPDGDHDLKRCQYVTEKVLAAVYKALSDHHIYLEGTLLKPNMVTPGHACTQKYSHEEIAMATVTALRRTVPPAVPGITFLSGGQSEEEASINLNAINKCPLLKPWALTFSYGRALQASALKAWGGKKENLKAAQEEYVKRALANSLACQGKYTPSGKAGAAASESLFISNHAY
B2: SEQID-00601: protein of the 168 nutritive polypeptide library (protein, listed as Agaricus bisporus)
chain: MTRSWEPGTQYNLGDVVEYNGDEYKIIQAHSSQSDWAPDRTPALWGKLPHRHHQQGQYQQQQECQPQQPQKTCYDYGKQEQAPQHSDSKEKKNWFGNITESQKQALEVGGGVALGAGLLGGAFAAWKHHQHKEEAHDSFEAWANAARSRAEEFRAKGPQGPATWVYNEGKHIPEQAILVGTEHNWNLYICRAYCDGGVQIGKASDVFKKGAVIGYKEDEHHLDKYEILLGDMRGLKWVQTGNSLDLASLGATPVEGGYENDHTRLYIARAFHKGAKHPGKVSERLDGAYIPYDGKEKCVKEYEVLCYL
modifications: source: /note="var. bisporus"; source: /note="strain H97 / ATCC MYA-4626 / FGSC 10389"
notes: protein of the 168 nutritive polypeptide library
B3: SEQID-00672 (BS): nutritive polypeptide (protein, listed as Saccharomyces cerevisiae)
chain: MSSSESIRMVLIGPPGAGKGTQAPNLQERFHAAHLATGDMLRSQIAKGTQLGLEAKKIMDQGGLVSDDIMVNMIKDELTNNPACKNGFILDGFPRTIPQAEKLDQMLKEQGTPLEKAIELKVDDELLVARITGRLIHPASGRSYHKIFNPPKEDMKDDVTGEALVQRSDDNADALKKRLAAYHAQTEPIVDFYKKTGIWAGVDASQPPATVWADILNKLGKD
modifications: source: /note="strain ATCC 204508 / S288c"
B4: SEQID-00678 (BS): nutritive polypeptide (protein, listed as Saccharomyces cerevisiae)
chain: MSSSESIRMVLIGPPGAGKGTQAPNLQERFHAAHLATGDMLKSQIAKGTQLGLEAKKIMDQGGLVSDDIMVNMIKDELTNNPACKNGFILDGFPRTIPQAEKLDQMLKEQGTPLEKAIELKVDDELLVARITGRLIHPASGRSYHKIFNPPKEDMKDDVTGEALVQRSDDNADALKKRLAAYHAQTEPIVDFYKKTGIWAGVDASQPPATVWADILNKLGKD
modifications: source: /note="strain ATCC 204508 / S288c"
B5: SEQID-00598: nutritive polypeptide naturally produced in Flaxseed, recombinantly expressed in E. coli (protein, listed as Linum usitatissimum)
chain: MSRRCPGKNAWPELVGKSGNMAAATVERENRNVHAIVLKEGSAMTKDFRCDRVWVIVNDHGVVTSVPHIT
B6: SEQID-00102: nutritive polypeptide (protein, listed as Lactobacillus johnsonii)
chain: MTEEEIFNKIADMISERFSIDRDKITKDLNFQNDLDADSIDFVELVMDLEDTFGAEIPDDDAEKLQTVGEAVEYIKSHQN
B7: SEQID-00099: nutritive polypeptide (protein, listed as Thermosynechococcus elongatus)
chain: MNQSEILEKVKAIVADQLSVDPEKVVPEASFAEDLNADSLDSVELIMALEEEFGVEIPDEEAEKLKTVQDVLDFINNKVAA
B8: SEQID-00420: nutritive polypeptide (protein)
chain: AAAPLEKRSCTFTSASAAKSGKSSCSTITLDNIAVPAGETLDLTGLKKGTTVIFEGETTFGYKEWKGPLISMSGTDITVKQASGAKINCDGARWWDGKGSNGGKTKPKFFQAHKLDQSSITGLKVYNTPVQGFSILADHLTITDVTIDNSAGTSKGHNTDAFDIGQSTYITIDGATVYNQDDCLAINSGEHITFTNGYCDGGHGLSIGSIGGRSDNTVNDVTISNSKVLNSQNGVRIKTIYGKTGTVENVKFEDITLSDISKYGIVVEQDYENGSPTGTPTNGVKVEDITFKKVTGSVKSSGTDIYILCGSGSCSNWTWSGVDVTGGKKSSKCKNVPSGASCSD
modifications: Aspergillus niger; source: /note="strain CBS 513.88 / FGSC A1513"
B9: SEQID-00418: nutritive polypeptide (protein)
chain: VPRVRRQGASSSFDYKSQIVRGVNLGGWLVTEPWITPSLYDSTGGGAVDEWTLCQILGKDEAQAKLSSHWSSFITQSDFDRMAQAGLNHVRIPIGYWAVAPIDGEPYVSGQIDYLDQAVTWARAAGLKVLVDLHGAPGSQNGFDNSGHRGPIQWQQGDTVNQTMTAFDALARRYAQSDTVTAIEAVNEPNIPGGVNEDGLKNYYYGALADVQRLNPSTTLFMSDGFQPVESWNGFMQGSNVVMDTHHYQVFDTGLLSMSIDDHVKTACSLATQHTMQSDKPVVVGEWTGALTDCAKYLNGVGNAARYDGTYMSTTKYGDCTGKSTGSVADFSADEKANTRRYIEAQLEAYEMKSGWLFWTWKTEGAPGWDMQDLLANQLFPTSPTDRQYPHQCS
modifications: Aspergillus niger; source: /note="strain CBS 513.88 / FGSC A1513"
B10: SEQID-00418 (E. coli): nutritive polypeptide (protein)
chain: VPRVRRQGASSSFDYKSQIVRGVNLGGWLVTEPWITPSLYDSTGGGAVDEWTLCQILGKDEAQAKLSSHWSSFITQSDFDRMAQAGLNHVRIPIGYWAVAPIDGEPYVSGQIDYLDQAVTWARAAGLKVLVDLHGAPGSQNGFDNSGHRGPIQWQQGDTVNQTMTAFDALARRYAQSDTVTAIEAVNEPNIPGGVNEDGLKNYYYGALADVQRLNPSTTLFMSDGFQPVESWNGFMQGSNVVMDTHHYQVFDTGLLSMSIDDHVKTACSLATQHTMQSDKPVVVGEWTGALTDCAKYLNGVGNAARYDGTYMSTTKYGDCTGKSTGSVADFSADEKANTRRYIEAQLEAYEMKSGWLFWTWKTEGAPGWDMQDLLANQLFPTSPTDRQYPHQCS
modifications: Aspergillus niger; source: /note="strain CBS 513.88 / FGSC A1513"
B11: SEQID-00098: nutritive polypeptide (protein, listed as Lactococcus lactis)
chain: MAVFEKVQDIIVDELGKEKEEVTLETSFEELDADSLDLFQIINDIEDEFDVEVDTEADMKTVADLVKYVENNK
B12: SEQID-00647: protein of the 168 nutritive polypeptide library (protein)
chain: MALSKIEEARQLNDDDLSEQILEIKKQLANLRLLKATGRLEKPHEIRHTRHRLSQLLTVERERQLPNQSPA
modifications: Arthrospira platensis C1
notes: as for B2
B13: SEQID-00302: nutritive polypeptide (protein)
chain: MAKKTVANLSASELSGKKVLVRADFNVPLDNGSISDDTRIRAALPTIQDLTSKGAKVILSSHFGRPQGQVVESMRLTPVAARLSELLGKTVKKCDDCIGEEVAVAVGAMSDGDVLLLENVRFHAAEEKNDPEFAKQLASVADLYVNDAFGTAHRAHASTEGVTKYLSPCVAGYLIEKELQFLQGAIESPQRPLAAIIGGSKVSSKIGVIEALLDKCDKLLLGGGMIFTFYKARGLSVGNSLVEEDKLELAKSLEAKAKEKGVTMLLPTDVVLADKFAADADSQTVSVEAIPDGWMGLDIGPDSVKVFQEALGDCKTVLWNGPMGVFEFEKFAAGTRAIAQTLAELTSTGTTTIIGGGDSVAAVEQLNLGEKMSHISTGGGASLELLEGKQLPGIVALDDA
modifications: Arthrospira platensis C1
notes: nutritive polypeptide
B14: SEQID-00546: protein of the 168 nutritive polypeptide library (protein, listed as Saccharomyces cerevisiae)
chain: MCSAGGIRRPIQIEEFKTAISGMSDMELAQIKTEIENSINHLQRSNARLGKYIAKLEGADDRLEADDSDDLENIDSGDLALYKDSVRENEIVLNNYNERVDALEQETVYRKTGHGKSKHEVEAKDNTNKGPDVDMDNSNVDVVTPNSIFI
modifications: source: /note="strain ATCC 204508 / S288c"
notes: as for B2
B15: SEQID-00220: nutritive polypeptide (protein, listed as Bos taurus)
chain: DTKKKVDDDLGTIENLEEAKKKLLKDVEVLSQRLEEKALAYDKLEKTKTRLQQELDDLLVDLDHQ

Assays:
[1] = Thermostability, temperature of aggregation (ProteoStat Thermal Shift); format: physicochemical; design: key to Tagg: temperature in °C; settings: for Tagg (pH 7.1): Table E31D, heated 25° C. to 95° C.
Protocol: The thermostability of proteins in a buffer cocktail of Citric Acid and Dibasic Sodium Phosphate over a pH range of 2.8 to 7.1 (preparation described above in Table E31B) was determined using the ProteoStat® Thermal Shift Stability Kit (Enzo Life Sciences) according to the manufacturer's standard protocol. Briefly, protein solutions (˜10 mg/ml) containing 1× ProteoStat TS Detection Reagent were heated from 25° C. to 95° C. at a rate of 0.5° C. per 30 sec using a real-time PCR (rtPCR) thermocycler (BioRad) equipped with a plate reader (SynergyMx, Biotek) while monitoring the fluorescence with a Texas Red filter.

[2] = Intact half-life during simulated gastric fluid (SGF) digestion; settings: for SGF Half-life (t½): SGF pH 1.5, pepsin:polypeptide 1:20 w/w, 37° C., intact protein; for Half-life: purified proteins, chip electrophoresis
Protocol: In this experiment the nutritive polypeptide was exposed to a series of proteases that are active in the stomach (pepsin) and intestine (trypsin and chymotrypsin), and the presence of intact protein was measured over time. Specifically, the nutritive polypeptide was first treated at a concentration of 2 g/L with simulated gastric fluid (SGF) (0.03 M NaCl, titrated with HCl to pH 1.5 with a final pepsin:polypeptide ratio of 1:20 w/w) at 37° C. Time points were sampled from the reaction and quenched by addition of 0.2 M Na2CO3. […] Time points were sampled from the reaction and quenched by addition of Trypsin/Chymotrypsin Inhibitor (Sigma) solution until 240 min.
Time point samples were analyzed for intact protein by chip electrophoresis, polyacrylamide gel electrophoresis, or western blot. For chip electrophoresis (Labchip GX II), samples were analyzed using a HT Low MW Protein Express LabChip® Kit (following the manufacturer's protocol). A protein ladder was loaded every 12 samples for molecular weight determination (kDa) and quantification. For polyacrylamide gel electrophoresis, samples (1 μg) were separated on a NuPAGE® Novex® Bis-Tris Precast gel (Life Technologies) according to the manufacturer's protocol. The gel was stained using SimplyBlue™ SafeStain (Invitrogen) and imaged using a Chemidoc XRS+ (BioRad) or transferred onto nitrocellulose membranes using the iBlot® Dry Blotting System (Life Technologies) and iBlot® Western Detection Kit (Life Technologies) according to the manufacturer's protocol. Proteins were detected by blotting with Anti-His [C-term]-HRP antibody diluted 3:5000 in Blok™-PO Blocking Buffer using the SNAP I.d.® Protein Detection System (Millipore) according to the manufacturer's protocol. Blots were treated with Luminata Classico Western HRP Substrate (Millipore) according to the manufacturer's protocol and imaged using chemiluminescent detection on the Molecular Imager® Gel Doc™ XR+ System (Bio-Rad). Quantification of intact protein was determined by densitometry using ImageLab (BioRad). For all analysis methods the relative concentration of the polypeptide at each time point (if detected) was plotted overtime and fit to an exponential curve to calculate the intact half-life.
Specifically, the t=0 (enzyme-free control) and t=2 min samples from the SGF digest were analyzed for intact protein as described by chip electrophoresis, SDS-PAGE, western blot, and/or LC-MS/MS. Relative quantities of polypeptides at each time point were determined and the percentage of intact protein remaining at t=2 was determined. Intact half-life values determined using this method are reported as greater or less than 2 min to indicate more or less than 50% of the protein remained intact at t=2 min, respectively.

[3] = SGF digest of 168 nutritive polypeptide library, intact protein by LC-MS/MS; format: in vitro ADME; settings: for % Intact Protein at 10 min: 168 nutritive polypeptide library SGF digest, LC-MS/MS spectral counts; for % Remaining at 10 min: 168 nutritive polypeptide library, LC-MS/MS
Procedure, shortened: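 A 168-protein IMAC-purified recombinant library was digested in simulated gastric fluid and the 0 and 10 min samples were profiled by SDS-PAGE fractionation, in-gel trypsin digestion and nanoLC-MS/MS. Percent intact protein at 10 min is the ratio of spectral counts (t10/t0), summed over the peak fraction and two flanking fractions. Filters were 1% FDR and at least two unique peptides.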

Molecule | Tagg (pH 7.1) [1] | SGF Half-life (t½) [2] | further results
B1 | 48 | 12 s | –
B2 | – | 12 s | % Intact Protein at 10 min [3]: 1.1%; % Remaining at 10 min [3]: 1.1%; Tagg ([1]; pH 2.8): 95; Tagg ([1]; pH 3.7): 95; Tagg ([1]; pH 4.3): 95^; Tagg ([1]; pH 6.5): 45.5; Tagg ([1]; pH 7.1): 48.5; Half-life [2]: 12 s
B3 | – | 18 s | –
B4 | – | 12 s | –
B5 | – | 30 s | % Intact Protein at 10 min [3]: 24.3%; % Remaining at 10 min [3]: 24.3%; Half-life [2]: 30 s
B6 | >95 | 36 s | –
B7 | 64 | 60 s | –
B8 | – | 72 s | –
B9 | – | 12 s | –
B10 | – | 30 s | –
B11 | – | 24 s | Tagg ([1]; pH 7.1): >95
B12 | – | 12 s | % Intact Protein at 10 min [3]: 12%; % Remaining at 10 min [3]: 12%; Half-life [2]: 12 s
B13 | 46 | 12 s | –
B14 | – | <600 s | % Intact Protein at 10 min [3]: 0%
B15 | >95 | 30 s | –
